According to patent US20190194326A1:

Assays:
[1] = molecular target: CD4 on chimp PBMC cells (chimp) (UniProt P16004); experiment: flow cytometry, chimp PBMC X282; 1st B4 binding, 2nd Leu3a exposure; double stained population; competitor B4 pre-bound
[2] = molecular target: CD4 on chimp PBMC cells (chimp) (UniProt P16004); experiment: flow cytometry, chimp PBMC X301, single label control Leu3a-PE
[3] = molecular target: CD4 on chimp PBMC cells (chimp) (UniProt P16004); experiment: flow cytometry, chimp PBMC X301; 1st Leu3a binding, 2nd B4 exposure; Leu3a+ B4- population
[4] = molecular target: CD4 on chimp PBMC cells (chimp) (UniProt P16004); experiment: flow cytometry, chimp PBMC X282; 1st Leu3a binding, 2nd B4 exposure; Leu3a+ B4- population
[5] = molecular target: CD4 on chimp PBMC cells (chimp) (UniProt P16004); experiment: flow cytometry, chimp PBMC X282; 1st B4 binding, 2nd Leu3a exposure; Leu3a+ B4- population; competitor B4 pre-bound
[6] = molecular target: CD4 on chimp PBMC cells (chimp) (UniProt P16004); experiment: flow cytometry, chimp PBMC X282, single label control Leu3a-PE
[7] = molecular target: CD4 on chimp PBMC cells (chimp) (UniProt P16004); experiment: flow cytometry, chimp PBMC X301; 1st B4 binding, 2nd Leu3a exposure; double stained population; competitor B4 pre-bound
[8] = molecular target: CD4 on chimp PBMC cells (chimp) (UniProt P16004); experiment: flow cytometry, chimp PBMC X301; 1st B4 binding, 2nd Leu3a exposure; Leu3a+ B4- population; competitor B4 pre-bound

## Leu3a (antibody)
[1]
  percent positive PBMC: 1.2%
[2]
  percent positive PBMC: 44%
[3]
  percent positive PBMC: 0.3%
[4]
  percent positive PBMC: 0.1%
[5]
  percent positive PBMC: 0%
[6]
  percent positive PBMC: 25.5%
[7]
  percent positive PBMC: 3%
[8]
  percent positive PBMC: 0%
